Measured values published in the supplement of paper PMC10567573.

B1: FBXO34 (parent)
chain: PRYREDPCKQCKKKYVKGDVSLCR

Variants of: B1
Assay: protein stability index of a GFP-peptide fusion (GPS, HEK-293T) (PSI 1-6); higher = more stable
Conditions: c terminus: a fixed tail appended
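Note: lentivirally expressed fusions sorted by FACS into six bins by GFP to DsRed ratio, PSI derived from sequencing read proportions per bin multiplied by bin number.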

Protein stability index: each site, then its substitutions
G18: S 2.92 | C 2.94 | E 3.17 | A 2.54
V20: Y 2.38 | L 2.46 | Q 3.31 | C 3.68 | S 3.11 | P 3.05 | N 2.97 | R 2.49 | K 3.07 | D 3.29 | E 2.8 | F 1.93 | G 2.18 | T 2.52 | H 3.51 | A 2.85 | W 2.06 | I 2.64 | M 2.88
Y15: H 4.01 | D 3.06 | Q 2.9 | F 2.73 | V 2.94 | G 3.47 | L 3.1 | E 3.12 | R 3.31 | K 3.49 | T 3.13 | M 3.11 | C 2.73 | A 2.8 | W 2.79 | N 2.99 | S 3.07 | I 2.95 | P 2.98
K17: E 2.53 | M 2.39 | A 2.89 | T 2.67 | D 2.52 | I 2.21 | F 2.04 | P 2.83 | Q 2.23 | H 3.2 | Y 2.29 | V 2.69 | L 1.96 | S 2.19 | R 2.59 | N 2.77 | C 2.52 | G 2.61 | W 2.72
K13: W 2.65 | Q 2.36 | V 2.59 | L 2.94 | P 1.68 | R 2.6 | N 2.66 | T 2.58 | S 2.63 | M 2.47 | Y 2.16
K14: M 2.31 | T 2.92 | R 2.88 | S 2.45 | A 2.17 | H 2.29 | D 2.24 | P 2.85 | V 2.2 | Q 2.59 | I 2.19 | C 1.84 | G 2.48 | F 2.5 | Y 2.12 | N 2.54 | L 2 | W 2.22 | E 2.69
R24: I 2.46 | V 3.34 | M 3.09 | K 4.33 | T 3.05 | Q 3.91 | Y 2.87 | W 2.27 | N 3.46 | D 3.82 | E 4.08 | H 3.42 | G 3.11 | P 4.39 | A 2.9 | F 2.51 | L 2.52 | C 3.58 | S 3.39
V16: T 2.74 | F 2.22 | H 2.77 | M 2.19 | G 2.55 | W 2.31 | A 3.11 | Y 2.65 | R 3.4 | C 3.63 | E 2.81 | S 2.93 | P 3.48 | K 2.75 | I 2.5 | N 2.52 | D 2.73 | Q 2.63 | L 2.98
C23: A 2.95 | I 2.59 | W 1.85 | G 2.88 | N 2.53 | P 2.52 | Q 1.9 | H 3.1 | R 2.86 | T 3.12 | K 3.29 | Y 2.11 | S 2.58 | V 3.18 | L 3.1 | E 2.71 | M 2.95 | D 3.3 | F 2.27
S21: N 2.64 | D 2.92 | Q 3.14 | R 2.97 | K 2.87 | I 2.34 | C 4.63 | H 3.53 | G 2.54 | Y 2.18 | M 2.51 | W 2.16 | A 3.03 | E 2.83 | F 2.67 | L 2.22 | P 2.53 | V 3.13 | T 2.66
